B1: PLAGL1 (parent)
chain: TKEKKHQCDHCERCFYTRKDVRRH
B2: ZBED1 (parent)
chain: EQVFSLGDGVSGGFFGIRDSSFL

Variants of: B1
Assay: protein stability index of a GFP-peptide fusion (GPS, HEK-293T) (PSI 1-6); higher = more stable
Conditions: c terminus: a fixed tail appended
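Note: lentivirally expressed fusions sorted by FACS into six bins by GFP to DsRed ratio, PSI derived from sequencing read proportions per bin multiplied by bin number.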

Row | Variant | protein stability index
1 | TKEKKHQCDHCERCFYTRHDVRRH | 3.55
2 | TKEKKHQCDHCERCFYTPKDVRRH | 3.13
3 | TKEKKHQCDHCERCFYTTKDVRRH | 3.29
4 | TKEKKHQCDHCERCFYTWKDVRRH | 3.27
5 | TKEKKHQCDHCERCFYTNKDVRRH | 3.58
6 | TKEKKHQCDHCERCFYTSKDVRRH | 3.5
7 | TKEKKHQCDHCERCFYTLKDVRRH | 3.76
8 | TKEKKHQCDHCERCFYTQKDVRRH | 3.38
9 | TKEKKHQCDHCERCFYTVKDVRRH | 3.27
10 | TKEKKHQCDHCERCFYTAKDVRRH | 3.54
11 | TKEKKHQCDHCERCFYTCKDVRRH | 3.06
12 | TKEKKHQCDHCERCFYTFKDVRRH | 2.76
13 | TKEKKHQCDHCERCFYTYKDVRRH | 3.2
14 | TKEKKHQCDHCERCFYTHKDVRRH | 3.29
15 | TKEKKHQCDHCERCFYTDKDVRRH | 3.82
16 | TKEKKHQCDHCERCFYTKKDVRRH | 3.09
17 | TKEKKHQCDHCERCFYTEKDVRRH | 3.61
18 | TKEKKHQCDHCERCFYTIKDVRRH | 3.06
19 | TKEKKHQCDHCERCFYTMKDVRRH | 2.95
20 | TKEKKHQCDHCERCFYTGKDVRRH | 2.87
21 | TKEKKHQCDHCERCYYTRKDVRRH | 3.48
22 | TKEKKHQCDHCERCWYTRKDVRRH | 3.41
23 | TKEKKHQCDHCERCVYTRKDVRRH | 3.47
24 | TKEKKHQCDHCERCFYHRKDVRRH | 3.29
25 | TKEKKHQCDHCERCFYFRKDVRRH | 4.01
26 | TKEKKHQCDHCERCFYARKDVRRH | 3.6
27 | TKEKKHQCDHCERCFYERKDVRRH | 3.81

Row | Variant | protein stability index
28 | TKEKKHQCDHCERCFYKRKDVRRH | 3.4
29 | TKEKKHQCDHCERCFYNRKDVRRH | 3.7
30 | TKEKKHQCDHCERCFYWRKDVRRH | 2.74
31 | TKEKKHQCDHCERCFYLRKDVRRH | 3.77
32 | TKEKKHQCDHCERCFYRRKDVRRH | 3.63
33 | TKEKKHQCDHCERCFYQRKDVRRH | 3.44
34 | TKEKKHQCDHCERCFYGRKDVRRH | 3.05
35 | TKEKKHQCDHCERCFYPRKDVRRH | 3.1
36 | TKEKKHQCDHCERCFYIRKDVRRH | 3.01
37 | TKEKKHQCDHCERCFYMRKDVRRH | 3.26
38 | TKEKKHQCDHCERCFYVRKDVRRH | 3.22
39 | TKEKKHQCDHCERCFYSRKDVRRH | 3.12
40 | TKEKKHQCDHCERCFYCRKDVRRH | 4.01
41 | TKEKKHQCDHCERCFYYRKDVRRH | 3.09
42 | TKEKKHQCDHCERCFYDRKDVRRH | 3.61
43 | TKEKKHQCDHCERCFYTRKDVNRH | 4.04
44 | TKEKKHQCDHCERCFYTRKDVIRH | 3.48
45 | TKEKKHQCDHCERCFYTRKDVHRH | 3.96
46 | TKEKKHQCDHCERCFYTRKDVLRH | 3.84
47 | TKEKKHQCDHCERCFYTRKDVTRH | 4.04
48 | TKEKKHQCDHCERCFYTRKDVKRH | 3.76
49 | TKEKKHQCDHCERCFYTRKDVSRH | 3.71
50 | TKEKKHQCDHCERCFYTRKDVFRH | 3.51
51 | TKEKKHQCDHCERCFYTRKDVGRH | 3.61
52 | TKEKKHQCDHCERCFYTRKDVYRH | 3.69
53 | TKEKKHQCDHCERCFYTRKDVMRH | 3.65
54 | TKEKKHQCDHCERCFYTRKDVVRH | 3.76

Row | Variant | protein stability index
55 | TKEKKHQCDHCERCFYTRKDVARH | 3.54
56 | TKEKKHQCDHCERCFYTRKDVCRH | 4.07
57 | TKEKKHQCDHCERCFYTRKDVERH | 4.73
58 | TKEKKHQCDHCERCFYTRKDVDRH | 4.31
59 | TKEKKHQCDHCERCFYTRKDVQRH | 3.51
60 | TKEKKHQCDHCERCFYTRKDVWRH | 3.27
61 | TKEKKHQCDHCERCFYTRKDVPRH | 3.62
62 | TKEKKHQCDHCERCFYTRKDVRRP | 3.24
63 | TKEKKHQCDHCERCFYTRKDVRRD | 3.84
64 | TKEKKHQCDHCERCFYTRKDVRRY | 2.79
65 | TKEKKHQCDHCERCFYTRKDVRRK | 3.62
66 | TKEKKHQCDHCERCFYTRKDVRRV | 3.11
67 | TKEKKHQCDHCERCFYTRKDVRRR | 3.37
68 | TKEKKHQCDHCERCFYTRKDVRRW | 3.03
69 | TKEKKHQCDHCERCFYTRKDVRRT | 3.63
70 | TKEKKHQCDHCERCFYTRKDVRRN | 2.89
71 | TKEKKHQCDHCERCFYTRKDVRRL | 3.17
72 | TKEKKHQCDHCERCFYTRKDVRRS | 3.27
73 | TKEKKHQCDHCERCFYTRKDVRRM | 2.88
74 | TKEKKHQCDHCERCFYTRKDVRRI | 3.24
75 | TKEKKHQCDHCERCFYTRKDVRRQ | 3.58
76 | TKEKKHQCDHCERCFYTRKDVRRG | 3.52
77 | TKEKKHQCDHCERCFYTRKDVRRC | 3.31
78 | TKEKKHQCDHCERCFYTRKDVRRF | 3.06
79 | TKEKKHQCDHCERCFYTRKDVRRA | 3.79
80 | TKEKKHQCDHCERCFYTRKDVRRE | 4.12

Variants of: B2
Assay: as above
Conditions: c terminus: native

Row | Variant | protein stability index
81 | HQVFSLGDGVSGGFFGIRDSSFL | 2.45
82 | DQVFSLGDGVSGGFFGIRDSSFL | 3.69
83 | NQVFSLGDGVSGGFFGIRDSSFL | 2.99
84 | MQVFSLGDGVSGGFFGIRDSSFL | 1.89
85 | LQVFSLGDGVSGGFFGIRDSSFL | 2.3
86 | CQVFSLGDGVSGGFFGIRDSSFL | 1.16
87 | GQVFSLGDGVSGGFFGIRDSSFL | 2.45
88 | SQVFSLGDGVSGGFFGIRDSSFL | 2.83
89 | QQVFSLGDGVSGGFFGIRDSSFL | 2.77
90 | FQVFSLGDGVSGGFFGIRDSSFL | 2.19
91 | RQVFSLGDGVSGGFFGIRDSSFL | 2.06
92 | KQVFSLGDGVSGGFFGIRDSSFL | 2.64
93 | PQVFSLGDGVSGGFFGIRDSSFL | 2.64
94 | AQVFSLGDGVSGGFFGIRDSSFL | 2.52

— the supplement of paper PMC10567573
